Patent publication US20210130436A1

Columns and labels:
PD-L1 (human) = PD-L1 (human) (UniProt Q9NZQ7); assay: cell-based or functional assay
CD28 (human) = CD28 (human) (UniProt P10747); assay: cell-based or functional assay

Sequence of WT CD80 IgV-Fc (inert) (Fc fusion) (chain): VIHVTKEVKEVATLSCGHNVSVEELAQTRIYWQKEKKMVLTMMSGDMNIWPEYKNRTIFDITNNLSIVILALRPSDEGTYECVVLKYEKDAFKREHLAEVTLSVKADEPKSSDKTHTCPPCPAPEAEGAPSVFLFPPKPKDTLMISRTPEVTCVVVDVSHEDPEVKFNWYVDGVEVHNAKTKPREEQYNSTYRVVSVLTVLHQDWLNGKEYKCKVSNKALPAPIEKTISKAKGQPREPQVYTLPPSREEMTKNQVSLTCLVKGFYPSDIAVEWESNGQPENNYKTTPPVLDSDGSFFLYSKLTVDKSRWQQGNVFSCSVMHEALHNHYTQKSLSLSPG
Sequence of PD-L1 (human) (Q9NZQ7 19-290): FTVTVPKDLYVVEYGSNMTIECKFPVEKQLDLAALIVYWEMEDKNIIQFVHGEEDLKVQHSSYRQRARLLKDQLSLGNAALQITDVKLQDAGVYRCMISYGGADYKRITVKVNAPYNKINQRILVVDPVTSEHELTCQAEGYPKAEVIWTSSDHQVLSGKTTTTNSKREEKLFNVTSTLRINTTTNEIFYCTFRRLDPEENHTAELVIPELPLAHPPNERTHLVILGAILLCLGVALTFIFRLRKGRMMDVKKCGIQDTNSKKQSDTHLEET

WT CD80 IgV-Fc (inert) (Fc fusion) gave an IL-2 release, primary T cells; K562/OKT3/PD-L1; 100 nM (PD-L1 (human)) of 52, an IL-2-luciferase RLU, Jurkat + CHO/OKT3/PD-L1 aAPC, 0.6 nM (CD28 (human)) of 458 RLU and an IL-2-luciferase RLU, Jurkat + CHO/OKT3/PD-L1 aAPC, 1.9 nM (CD28 (human)) of 486 RLU. For the same substance, the IL-2-luciferase RLU, Jurkat + CHO/OKT3/PD-L1 aAPC, 5.6 nM (CD28 (human)) was 511 RLU, the IL-2-luciferase RLU, Jurkat + CHO/OKT3/PD-L1 aAPC, 50 nM (CD28 (human)) was 483 RLU and the IL-2-luciferase RLU, Jurkat + CHO/OKT3 aAPC (no PD-L1), 5.6 nM (CD28 (human)) was 450 RLU. The IL-2-luciferase RLU, Jurkat + CHO/OKT3 aAPC (no PD-L1), 16.7 nM (CD28 (human)) was 444 RLU, the IL-2-luciferase RLU, Jurkat + CHO/OKT3 aAPC (no PD-L1), 50 nM (CD28 (human)) was 479 RLU and the IL-2-luciferase RLU, Jurkat + K562/OKT3/PD-L1 aAPC, 50 nM (CD28 (human)) was 566 RLU.

With “variant CD80 IgV-Fc (effector) A26E/E35D/M47L/L85Q (Fc fusion)” the RLU, Jurkat/IL2 reporter; K562/OKT3/PD-L1 aAPC, Combination of FcR and/or PD-L1 Dependent Cross-Linking; 0.6 nM (PD-L1 (human)) was 1230 RLU, the RLU, Jurkat/IL2 reporter; K562/OKT3/PD-L1 aAPC, Combination of FcR and/or PD-L1 Dependent Cross-Linking; 1.9 nM (PD-L1 (human)) was 1590 RLU and the RLU, Jurkat/IL2 reporter; K562/OKT3/PD-L1 aAPC, Combination of FcR and/or PD-L1 Dependent Cross-Linking; 5.6 nM (PD-L1 (human)) was 2000 RLU. For the same substance, the RLU, Jurkat/IL2 reporter; K562/OKT3/PD-L1 aAPC, Combination of FcR and/or PD-L1 Dependent Cross-Linking; 16.7 nM (PD-L1 (human)) was 2500 RLU, the RLU, Jurkat/IL2 reporter; K562/OKT3/PD-L1 aAPC, Combination of FcR and/or PD-L1 Dependent Cross-Linking; 50 nM (PD-L1 (human)) was 2640 RLU and the IL-2 release, primary T cells; K562/OKT3 (No PD-L1); 1 nM (CD28 (human)) was 6850. It also gave an IL-2 release, primary T cells; K562/OKT3 (No PD-L1); 10 nM (CD28 (human)) of 8320, an RLU, Jurkat/IL2 reporter; K562/OKT3 aAPC, FcR Dependent Cross-Linking (No PD-L1); 0.6 nM (CD28 (human)) of 1350 RLU and an RLU, Jurkat/IL2 reporter; K562/OKT3 aAPC, FcR Dependent Cross-Linking (No PD-L1); 1.9 nM (CD28 (human)) of 1380 RLU. It also gave an RLU, Jurkat/IL2 reporter; K562/OKT3 aAPC, FcR Dependent Cross-Linking (No PD-L1); 5.6 nM (CD28 (human)) of 1420 RLU, an RLU, Jurkat/IL2 reporter; K562/OKT3 aAPC, FcR Dependent Cross-Linking (No PD-L1); 16.7 nM (CD28 (human)) of 1370 RLU and an RLU, Jurkat/IL2 reporter; K562/OKT3 aAPC, FcR Dependent Cross-Linking (No PD-L1); 50 nM (CD28 (human)) of 1330 RLU.

“variant CD80 IgV-Fc (effector) A71D/L72V/E95K (Fc fusion)” gave an RLU, Jurkat/IL2 reporter; K562/OKT3/PD-L1 aAPC, Combination of FcR and/or PD-L1 Dependent Cross-Linking; 1.9 nM (PD-L1 (human)) of 1540 RLU, an RLU, Jurkat/IL2 reporter; K562/OKT3/PD-L1 aAPC, Combination of FcR and/or PD-L1 Dependent Cross-Linking; 5.6 nM (PD-L1 (human)) of 2520 RLU and an RLU, Jurkat/IL2 reporter; K562/OKT3/PD-L1 aAPC, Combination of FcR and/or PD-L1 Dependent Cross-Linking; 16.7 nM (PD-L1 (human)) of 3640 RLU. It also gave an RLU, Jurkat/IL2 reporter; K562/OKT3/PD-L1 aAPC, Combination of FcR and/or PD-L1 Dependent Cross-Linking; 50 nM (PD-L1 (human)) of 4030 RLU, an IL-2 release, primary T cells; K562/OKT3 (No PD-L1); 10 nM (CD28 (human)) of 15100 and an IL-2 release, primary T cells; K562/OKT3 (No PD-L1); 100 nM (CD28 (human)) of 21300. The RLU, Jurkat/IL2 reporter; K562/OKT3 aAPC, FcR Dependent Cross-Linking (No PD-L1); 0.6 nM (CD28 (human)) was 1820 RLU, the RLU, Jurkat/IL2 reporter; K562/OKT3 aAPC, FcR Dependent Cross-Linking (No PD-L1); 1.9 nM (CD28 (human)) was 2590 RLU and the RLU, Jurkat/IL2 reporter; K562/OKT3 aAPC, FcR Dependent Cross-Linking (No PD-L1); 5.6 nM (CD28 (human)) was 4130 RLU. For the same substance, the RLU, Jurkat/IL2 reporter; K562/OKT3 aAPC, FcR Dependent Cross-Linking (No PD-L1); 16.7 nM (CD28 (human)) was 5550 RLU and the RLU, Jurkat/IL2 reporter; K562/OKT3 aAPC, FcR Dependent Cross-Linking (No PD-L1); 50 nM (CD28 (human)) was 7110 RLU.

“variant CD80 IgV-Fc (effector) E23G/A26S/E35D/T62N/A71D/L72V/L85M (Fc fusion)” gave an RLU, Jurkat/IL2 reporter; K562/OKT3/PD-L1 aAPC, Combination of FcR and/or PD-L1 Dependent Cross-Linking; 0.6 nM (PD-L1 (human)) of 1150 RLU, an RLU, Jurkat/IL2 reporter; K562/OKT3/PD-L1 aAPC, Combination of FcR and/or PD-L1 Dependent Cross-Linking; 1.9 nM (PD-L1 (human)) of 1950 RLU and an RLU, Jurkat/IL2 reporter; K562/OKT3/PD-L1 aAPC, Combination of FcR and/or PD-L1 Dependent Cross-Linking; 5.6 nM (PD-L1 (human)) of 3220 RLU. For the same substance, the RLU, Jurkat/IL2 reporter; K562/OKT3/PD-L1 aAPC, Combination of FcR and/or PD-L1 Dependent Cross-Linking; 16.7 nM (PD-L1 (human)) was 4040 RLU, the RLU, Jurkat/IL2 reporter; K562/OKT3/PD-L1 aAPC, Combination of FcR and/or PD-L1 Dependent Cross-Linking; 50 nM (PD-L1 (human)) was 4140 RLU and the IL-2 release, primary T cells; K562/OKT3 (No PD-L1); 1 nM (CD28 (human)) was 15400. For the same substance, the IL-2 release, primary T cells; K562/OKT3 (No PD-L1); 10 nM (CD28 (human)) was 23500, the IL-2 release, primary T cells; K562/OKT3 (No PD-L1); 100 nM (CD28 (human)) was 27000 and the RLU, Jurkat/IL2 reporter; K562/OKT3 aAPC, FcR Dependent Cross-Linking (No PD-L1); 0.6 nM (CD28 (human)) was 2020 RLU. The RLU, Jurkat/IL2 reporter; K562/OKT3 aAPC, FcR Dependent Cross-Linking (No PD-L1); 1.9 nM (CD28 (human)) was 3300 RLU, the RLU, Jurkat/IL2 reporter; K562/OKT3 aAPC, FcR Dependent Cross-Linking (No PD-L1); 5.6 nM (CD28 (human)) was 5050 RLU and the RLU, Jurkat/IL2 reporter; K562/OKT3 aAPC, FcR Dependent Cross-Linking (No PD-L1); 16.7 nM (CD28 (human)) was 7010 RLU. The RLU, Jurkat/IL2 reporter; K562/OKT3 aAPC, FcR Dependent Cross-Linking (No PD-L1); 50 nM (CD28 (human)) was 7860 RLU.

“variant CD80 IgV-Fc (effector) E35D (Fc fusion)” was tested, and the RLU, Jurkat/IL2 reporter; K562/OKT3/PD-L1 aAPC, Combination of FcR and/or PD-L1 Dependent Cross-Linking; 0.6 nM (PD-L1 (human)) was 920 RLU, the RLU, Jurkat/IL2 reporter; K562/OKT3/PD-L1 aAPC, Combination of FcR and/or PD-L1 Dependent Cross-Linking; 1.9 nM (PD-L1 (human)) was 1110 RLU and the RLU, Jurkat/IL2 reporter; K562/OKT3/PD-L1 aAPC, Combination of FcR and/or PD-L1 Dependent Cross-Linking; 5.6 nM (PD-L1 (human)) was 1400 RLU. It also gave an RLU, Jurkat/IL2 reporter; K562/OKT3/PD-L1 aAPC, Combination of FcR and/or PD-L1 Dependent Cross-Linking; 16.7 nM (PD-L1 (human)) of 1760 RLU, an RLU, Jurkat/IL2 reporter; K562/OKT3/PD-L1 aAPC, Combination of FcR and/or PD-L1 Dependent Cross-Linking; 50 nM (PD-L1 (human)) of 2270 RLU and an IL-2 release, primary T cells; K562/OKT3 (No PD-L1); 1 nM (CD28 (human)) of 7600. The IL-2 release, primary T cells; K562/OKT3 (No PD-L1); 10 nM (CD28 (human)) was 7990, the IL-2 release, primary T cells; K562/OKT3 (No PD-L1); 100 nM (CD28 (human)) was 8380 and the RLU, Jurkat/IL2 reporter; K562/OKT3 aAPC, FcR Dependent Cross-Linking (No PD-L1); 0.6 nM (CD28 (human)) was 1400 RLU. The RLU, Jurkat/IL2 reporter; K562/OKT3 aAPC, FcR Dependent Cross-Linking (No PD-L1); 1.9 nM (CD28 (human)) was 1330 RLU, the RLU, Jurkat/IL2 reporter; K562/OKT3 aAPC, FcR Dependent Cross-Linking (No PD-L1); 5.6 nM (CD28 (human)) was 1300 RLU and the RLU, Jurkat/IL2 reporter; K562/OKT3 aAPC, FcR Dependent Cross-Linking (No PD-L1); 16.7 nM (CD28 (human)) was 1320 RLU. The RLU, Jurkat/IL2 reporter; K562/OKT3 aAPC, FcR Dependent Cross-Linking (No PD-L1); 50 nM (CD28 (human)) was 1200 RLU.
